Test results as given in article doi:10.1101/2021.10.14.464379.
Where “and” joins values, the source holds several entries; their conditions need not be identical. Equal entries are not always repeated.

Experiments:
[1] = molecular target: ZmBAM7-S (short form of corn BAM7), full-length recombinant protein (Zea mays); test: SEC
[2] = molecular target: ZmBAM7-S (short form of corn BAM7), full-length recombinant protein (Zea mays); test: SAXS

ZmBAM7-S (short form of corn BAM7), full-length recombinant protein (enzyme)
stoichiometry N [1]: 4 subunits and 6 subunits | stoichiometry N [2]: 4
